Assay results reported in patent US7232659.

Columns and labels:
[1] = target: hexahistidine-tagged G protein heterotrimer Gαsβ1γ2 (human) (UniProt P63092); assay: flow cytometry, Gαsβ1γ2 on Ni beads, 40 nM β2AR-GFP with 1 mM isoproterenol; background with 0.1 mM GTPγS about 10,000 β2AR-GFP/bead
[2] = target: hexahistidine-tagged G protein heterotrimer Gαsβ1γ2 (human) (UniProt P63092); assay: flow cytometry, ARG assembly of 20 nM β2AR-GFP on Gαsβ1γ2 Ni beads, receptor occupied by salbutamol (FIG. 5B)
[3] = target: hexahistidine-tagged G protein heterotrimer Gαsβ1γ2 (human) (UniProt P63092); assay: flow cytometry, ARG assembly of 20 nM β2AR-GFP on Gαsβ1γ2 Ni beads, receptor occupied by dobutamine (FIG. 5B)
[4] = target: β2-adrenergic receptor-green fluorescent protein fusion protein (β2AR-GFP) (human; Aequorea victoria) (UniProt P07550); assay: flow cytometry, soluble Gαsβ1γ2 competing with bead-borne Gαsβ1γ2 for isoproterenol-bound β2AR-GFP (FIG. 4E)
[5] = target: FPR-GFP fusion protein (human; Aequorea victoria) (UniProt P21462); assay: flow cytometry, LRG assembly of 30 nM FPR-GFP on αβγ DCNi beads, ligand varied (FIG. 13B); exponent printed as 10^6, read as 10^-6

Chain of hexahistidine-tagged G protein heterotrimer Gαsβ1γ2 (human) (P63092 other isoform, or with tags, fused parts or gaps, chain 1 of 3): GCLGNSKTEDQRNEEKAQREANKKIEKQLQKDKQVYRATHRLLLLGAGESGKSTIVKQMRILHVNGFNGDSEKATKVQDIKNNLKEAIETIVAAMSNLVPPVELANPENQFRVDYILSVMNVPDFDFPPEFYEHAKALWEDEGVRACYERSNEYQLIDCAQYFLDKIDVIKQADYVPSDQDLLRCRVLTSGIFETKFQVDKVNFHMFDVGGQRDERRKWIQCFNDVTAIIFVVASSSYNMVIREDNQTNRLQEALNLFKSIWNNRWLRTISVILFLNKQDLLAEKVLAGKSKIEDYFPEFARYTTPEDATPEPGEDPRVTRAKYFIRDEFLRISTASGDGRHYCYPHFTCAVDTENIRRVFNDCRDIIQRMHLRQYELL
Chain of hexahistidine-tagged G protein heterotrimer Gαsβ1γ2 (human) (P62873 2-340, chain 2 of 3, further chain): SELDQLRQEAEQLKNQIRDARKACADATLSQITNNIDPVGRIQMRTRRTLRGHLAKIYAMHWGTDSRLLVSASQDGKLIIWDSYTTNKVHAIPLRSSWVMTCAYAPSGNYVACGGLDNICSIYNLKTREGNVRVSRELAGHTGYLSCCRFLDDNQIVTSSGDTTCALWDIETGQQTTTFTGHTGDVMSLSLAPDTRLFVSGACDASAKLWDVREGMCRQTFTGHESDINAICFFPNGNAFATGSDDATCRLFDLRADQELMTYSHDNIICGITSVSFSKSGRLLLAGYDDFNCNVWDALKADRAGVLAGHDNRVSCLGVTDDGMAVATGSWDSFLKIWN
Chain of hexahistidine-tagged G protein heterotrimer Gαsβ1γ2 (human) (P59768 other isoform, or with tags, fused parts or gaps, chain 3 of 3, further chain): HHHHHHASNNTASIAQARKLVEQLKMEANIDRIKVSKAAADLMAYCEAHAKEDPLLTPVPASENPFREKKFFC

A total fluorescence, β2AR-GFP/bead (β2AR-GFP/bead) [1] of 80000, an ARG/bead level against the full agonist isoproterenol [2] of 30 percent and an ARG/bead level against the full agonist isoproterenol [3] of 10 percent were found for “β2-adrenergic receptor-green fluorescent protein fusion protein (β2AR-GFP) (from UniProt P07550 1-413; P42212 1-238)” in this work.

A Kd [4] of 90 to 110 nM was found for “hexahistidine-tagged G protein heterotrimer Gαsβ1γ2 (from UniProt P63092 2-380; P62873 2-340; P59768 2-68)” in this work.

An EC50 [5] of 5300 nM was found for fML (peptide) in this work.
